Reference: US20220105150A1, “AMPHIPATHIC ALPHA-HELICAL ANTIMICROBIAL PEPTIDES TREAT INFECTIONS BY GRAM-NEGATIVE PATHOGENS” (priority 2019, published 2022)
Square brackets hold non-standard residues; d marks the D form. dOrn = NCCC[C@@H](N)C(=O)O; Dab = NCC[C@H](N)C(=O)O

B1: D85(Lys1-6Orn-1) (peptide)
peptide: Ac-[dK][dL][dOrn][dS][dL][dL][dOrn][dT][dL][dS][dOrn][dA][dK][dA][dA][dK][dL][dOrn][dT][dL][dL][dOrn][dA][dL][dS][dOrn]-NH2
SMILES: CC(=O)N[C@H](CCCCN)C(=O)N[C@H](CC(C)C)C(=O)N[C@H](CCCN)C(=O)N[C@H](CO)C(=O)N[C@H](CC(C)C)C(=O)N[C@H](CC(C)C)C(=O)N[C@H](CCCN)C(=O)N[C@@H](C(=O)N[C@H](CC(C)C)C(=O)N[C@H](CO)C(=O)N[C@H](CCCN)C(=O)N[C@H](C)C(=O)N[C@H](CCCCN)C(=O)N[C@H](C)C(=O)N[C@H](C)C(=O)N[C@H](CCCCN)C(=O)N[C@H](CC(C)C)C(=O)N[C@H](CCCN)C(=O)N[C@@H](C(=O)N[C@H](CC(C)C)C(=O)N[C@H](CC(C)C)C(=O)N[C@H](CCCN)C(=O)N[C@H](C)C(=O)N[C@H](CC(C)C)C(=O)N[C@H](CO)C(=O)N[C@H](CCCN)C(N)=O)[C@H](C)O)[C@H](C)O
notes: Designed 26-residue AMP; also called D85(6Orn-1)
B2: D86(Lys1-6Dab-1) (peptide)
peptide: Ac-[dK][dL][Dab][dS][dL][dL][Dab][dT][dL][dS][Dab][dA][dK][dA][dA][dK][dL][Dab][dT][dL][dL][Dab][dA][dL][dS][Dab]-NH2
modifications: not fully specified
notes: Designed 26-residue AMP; Lys13/Lys16 specificity determinants; also called D86(6 Dab-1); D86-6 Dab-1
B3: D101(Lys1Ser26-5Lys-1) (peptide)
peptide: Ac-[dK][dL][dK][dS][dL][dL][dK][dT][dL][dS][dK][dA][dK][dA][dA][dK][dL][dK][dT][dL][dL][dK][dA][dL][dS][dS]-NH2
SMILES: CC(=O)N[C@H](CCCCN)C(=O)N[C@H](CC(C)C)C(=O)N[C@H](CCCCN)C(=O)N[C@H](CO)C(=O)N[C@H](CC(C)C)C(=O)N[C@H](CC(C)C)C(=O)N[C@H](CCCCN)C(=O)N[C@@H](C(=O)N[C@H](CC(C)C)C(=O)N[C@H](CO)C(=O)N[C@H](CCCCN)C(=O)N[C@H](C)C(=O)N[C@H](CCCCN)C(=O)N[C@H](C)C(=O)N[C@H](C)C(=O)N[C@H](CCCCN)C(=O)N[C@H](CC(C)C)C(=O)N[C@H](CCCCN)C(=O)N[C@@H](C(=O)N[C@H](CC(C)C)C(=O)N[C@H](CC(C)C)C(=O)N[C@H](CCCCN)C(=O)N[C@H](C)C(=O)N[C@H](CC(C)C)C(=O)N[C@H](CO)C(=O)N[C@H](CO)C(N)=O)[C@H](C)O)[C@H](C)O
notes: Designed 26-residue AMP; Lys at 3, 7, 11, 18, 22; Ser26; Lys13/Lys16 specificity determinants; also called D101(5 Lys-1)
B4: D102(Lys1Ser26-5Dab-1) (peptide)
peptide: Ac-[dK][dL][Dab][dS][dL][dL][Dab][dT][dL][dS][Dab][dA][dK][dA][dA][dK][dL][Dab][dT][dL][dL][Dab][dA][dL][dS][dS]-NH2
SMILES: CC(=O)N[C@H](CCCCN)C(=O)N[C@H](CC(C)C)C(=O)N[C@@H](CCN)C(=O)N[C@H](CO)C(=O)N[C@H](CC(C)C)C(=O)N[C@H](CC(C)C)C(=O)N[C@@H](CCN)C(=O)N[C@@H](C(=O)N[C@H](CC(C)C)C(=O)N[C@H](CO)C(=O)N[C@@H](CCN)C(=O)N[C@H](C)C(=O)N[C@H](CCCCN)C(=O)N[C@H](C)C(=O)N[C@H](C)C(=O)N[C@H](CCCCN)C(=O)N[C@H](CC(C)C)C(=O)N[C@@H](CCN)C(=O)N[C@@H](C(=O)N[C@H](CC(C)C)C(=O)N[C@H](CC(C)C)C(=O)N[C@@H](CCN)C(=O)N[C@H](C)C(=O)N[C@H](CC(C)C)C(=O)N[C@H](CO)C(=O)N[C@H](CO)C(N)=O)[C@H](C)O)[C@H](C)O
notes: Designed 26-residue AMP; Ser26; Lys13/Lys16 specificity determinants; also called D102(5 Dab-1)
B5: D85(K13A/K16A)-(Lys1-6Orn-1) (peptide)
peptide: Ac-[dK][dL][dOrn][dS][dL][dL][dOrn][dT][dL][dS][dOrn][dA][dA][dA][dA][dA][dL][dOrn][dT][dL][dL][dOrn][dA][dL][dS][dOrn]-NH2
SMILES: CC(=O)N[C@H](CCCCN)C(=O)N[C@H](CC(C)C)C(=O)N[C@H](CCCN)C(=O)N[C@H](CO)C(=O)N[C@H](CC(C)C)C(=O)N[C@H](CC(C)C)C(=O)N[C@H](CCCN)C(=O)N[C@@H](C(=O)N[C@H](CC(C)C)C(=O)N[C@H](CO)C(=O)N[C@H](CCCN)C(=O)N[C@H](C)C(=O)N[C@H](C)C(=O)N[C@H](C)C(=O)N[C@H](C)C(=O)N[C@H](C)C(=O)N[C@H](CC(C)C)C(=O)N[C@H](CCCN)C(=O)N[C@@H](C(=O)N[C@H](CC(C)C)C(=O)N[C@H](CC(C)C)C(=O)N[C@H](CCCN)C(=O)N[C@H](C)C(=O)N[C@H](CC(C)C)C(=O)N[C@H](CO)C(=O)N[C@H](CCCN)C(N)=O)[C@H](C)O)[C@H](C)O
notes: Control AMP without specificity determinants (Ala13/Ala16); also called D85(A13/A16-6Orn-1); D85(K13A/K16A-6 Orn-1)

What was measured:
serum proteins = test: cell-based or functional assay
[1] = molecular target: the molecule itself; test: RP-HPLC temperature profiling, self-association (dimerization/oligomerization) against random coil control RC

Binder | MIC (µM) against A. baumannii strain 649 in 25% human serum (no serum: 0.4) (serum proteins) [µM] | PA (self-association parameter) [1] [min] | MIC (µM) against A. baumannii strain 649 in 25% human serum (no serum: 0.7) (serum proteins) [µM]
B1 | 0.2 | 4.1 | –
B2 | – | 0 | 0.2
B3 | – | 6 | 0.7
B4 | 0.7 | 0 | –
B5 | – | 28 | –
